Measurements as given in patent US20110177600A1 (published 2011).

Biological target: diphtheria toxin (UniProt P00588 33-567)
Assay: cell-based or functional assay

diphtheria toxin, sequence (P00588 33-567 limits assumed): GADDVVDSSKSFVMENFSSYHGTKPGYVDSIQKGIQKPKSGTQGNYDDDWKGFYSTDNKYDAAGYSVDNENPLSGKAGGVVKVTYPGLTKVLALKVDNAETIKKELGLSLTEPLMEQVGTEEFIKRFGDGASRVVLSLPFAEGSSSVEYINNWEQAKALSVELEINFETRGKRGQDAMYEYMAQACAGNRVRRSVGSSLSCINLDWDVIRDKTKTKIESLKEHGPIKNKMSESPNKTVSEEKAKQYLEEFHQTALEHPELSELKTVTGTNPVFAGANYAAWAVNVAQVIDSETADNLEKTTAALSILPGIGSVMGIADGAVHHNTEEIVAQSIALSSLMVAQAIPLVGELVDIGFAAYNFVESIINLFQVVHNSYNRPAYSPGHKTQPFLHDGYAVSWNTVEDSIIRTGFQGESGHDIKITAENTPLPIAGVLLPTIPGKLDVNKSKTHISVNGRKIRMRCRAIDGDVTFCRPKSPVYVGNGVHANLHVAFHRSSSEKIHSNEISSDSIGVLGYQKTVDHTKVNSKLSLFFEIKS

| Binder | EC50 for protecting Jurkat cells from killing by diphtheria toxin (3H-thymidine incorporation) [ng/mL] |
| --- | --- |
| anti-diphtheria toxin antibody expressed in DG44 cells (antibody, human IgG1, kappa, V domains shown) VH: EVQLVESGGGLVKPGGSLRLSCEASGFIFSDYYMSWIRQAPGKGLEWISYISPSGSTLYYADSMRGRFTISRDNAKNSLYLQMNSLRVEDTAVYFCAREYPTTSKVAITPNWFDLWGQGTLVTVSS VL: ETTLTQSPATLSLSPGERATLSCRASQSVSTFLAWYQQKPGQAPRLLIYDASNRATGIPARFSGSGSGTDFTLTISSLEPEDFAVYYCQQRNIWPSFGGGTKVDIKR | 8 |
| anti-diphtheria toxin antibody expressed in PER.C6 cells (antibody, human IgG1, kappa, V domains shown) VH: EVQLVESGGGLVKPGGSLRLSCEASGFIFSDYYMSWIRQAPGKGLEWISYISPSGSTLYYADSMRGRFTISRDNAKNSLYLQMNSLRVEDTAVYFCAREYPTTSKVAITPNWFDLWGQGTLVTVSS VL: ETTLTQSPATLSLSPGERATLSCRASQSVSTFLAWYQQKPGQAPRLLIYDASNRATGIPARFSGSGSGTDFTLTISSLEPEDFAVYYCQQRNIWPSFGGGTKVDIKR | 11 |
